Measured values as given in article PMC10400037, “Novel players in organogenesis and flavonoid biosynthesis in cucumber glandular trichomes”.

Molecular target: T1, MBP-CsTBH (TINY BRANCHED HAIR, HD-ZIP) (Cucumis sativus, UniProt A0A0A0LED8 1-240)
T1 sequence: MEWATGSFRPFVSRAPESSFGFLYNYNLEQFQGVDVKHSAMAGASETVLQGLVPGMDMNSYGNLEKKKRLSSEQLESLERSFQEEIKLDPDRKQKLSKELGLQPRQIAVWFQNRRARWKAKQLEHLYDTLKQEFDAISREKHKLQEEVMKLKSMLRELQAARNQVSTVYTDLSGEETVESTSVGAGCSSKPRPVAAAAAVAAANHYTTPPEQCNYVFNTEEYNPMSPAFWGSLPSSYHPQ
Test: EMSA; EMSA kit (Beyotime GS009) reaction buffer, room temperature, 6% native PAGE; salt and pH not stated
Conditions: protein: recombinant; chain copies: 2; blunt

Row | Binder | binding result
1 | Cs4CL promoter probe (dsDNA) DNA 1: CTTCCAAATTAATTATTGTTTTATGCAAA DNA 2: TTTGCATAAAACAATAATTAATTTGGAAG | binds
2 | CsF3H promoter probe (dsDNA) DNA 1: GATTTGAGAAAATTATTGGGCTGGATTGT DNA 2: ACAATCCAGCCCAATAATTTTCTCAAATC | binds
3 | CsFLS promoter probe (dsDNA) DNA 1: AATTTAAAATAATTATTGGGATTTCAAAC DNA 2: GTTTGAAATCCCAATAATTATTTTAAATT | binds
